Experimental data taken from paper PMC8324488 (Cell Reports Medicine, 2021).

Molecular target: EBV glycoprotein gp350 (Epstein-Barr virus (strain B95-8) …, UniProt P03200-1)
Test: flow cytometry on cells

Chain of EBV glycoprotein gp350 (P03200 whole entry): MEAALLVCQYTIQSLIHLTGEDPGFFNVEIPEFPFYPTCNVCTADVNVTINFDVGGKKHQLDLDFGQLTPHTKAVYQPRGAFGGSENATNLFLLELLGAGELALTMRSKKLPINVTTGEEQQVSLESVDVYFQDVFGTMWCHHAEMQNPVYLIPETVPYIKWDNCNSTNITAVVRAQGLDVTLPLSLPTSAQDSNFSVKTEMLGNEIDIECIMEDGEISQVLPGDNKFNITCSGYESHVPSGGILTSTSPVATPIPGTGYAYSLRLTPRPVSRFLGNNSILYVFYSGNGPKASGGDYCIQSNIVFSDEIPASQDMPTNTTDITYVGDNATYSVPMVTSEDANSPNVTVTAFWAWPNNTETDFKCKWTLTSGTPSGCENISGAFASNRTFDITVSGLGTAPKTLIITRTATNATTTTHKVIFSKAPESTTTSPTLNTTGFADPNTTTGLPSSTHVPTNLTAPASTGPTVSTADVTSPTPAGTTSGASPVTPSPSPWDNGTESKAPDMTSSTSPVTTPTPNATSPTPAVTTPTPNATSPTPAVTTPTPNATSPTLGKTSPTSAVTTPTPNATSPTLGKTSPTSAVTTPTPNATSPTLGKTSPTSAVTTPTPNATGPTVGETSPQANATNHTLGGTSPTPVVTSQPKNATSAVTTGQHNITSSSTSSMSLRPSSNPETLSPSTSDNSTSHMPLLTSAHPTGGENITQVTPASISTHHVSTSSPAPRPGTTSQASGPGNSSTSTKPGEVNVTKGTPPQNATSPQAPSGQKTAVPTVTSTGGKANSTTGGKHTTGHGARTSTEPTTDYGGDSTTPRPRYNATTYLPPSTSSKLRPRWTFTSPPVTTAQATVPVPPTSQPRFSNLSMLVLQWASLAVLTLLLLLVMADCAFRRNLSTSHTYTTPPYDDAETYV

binding result: binds
B1: 72A1, original hybridoma antibody (antibody, V domains shown)
VH: EVQLQQSGPELVKPGTSMKISCKASGSSFTDYTMNWMKQSHGKNLEWIGLINPYNGGTRYNQKFKGKATLTLDKSSSTAYMEVLSLTSEDSAVYYCAGGLRRVNWFAYWGQGTLVSVSA
VL: QAVLTQESALTTSPGETVTLTCRSSTGAVTTSNYANWVQEKPDHLFTGLIGGTNNRVPGVPARFSGSLIGDKAALTITGAQTEDEAIYFCVLWHSNHWVFGGGTKLTVL
